Patent US20130122591

Assays:
Test in all cases: cell_activity
[1] = tested on: TALEN 101276 (engineered)
ZFN 29250 (engineered) = tested on: ZFN 29250 (engineered)
ZFN 29223 (engineered) = tested on: ZFN 29223 (engineered)
ZFN 29216 (engineered) = tested on: ZFN 29216 (engineered)
[2] = tested on: TALEN 101267 (engineered); details: pair with 101270, K562, 1600 ng, day 3
[3] = tested on: TALEN 101286 (engineered); details: pair with 101284, K562, 1600 ng, day 3
ZFN 30179 (engineered) = tested on: ZFN 30179 (engineered)
ZFN 29251 (engineered) = tested on: ZFN 29251 (engineered)
[4] = tested on: TALEN 101270 (engineered); details: pair with 101267, K562, 1600 ng, day 3
[5] = tested on: TALEN 101288 (engineered)
[6] = tested on: TALEN 101278 (engineered)
[7] = tested on: TALEN 101271 (engineered); details: pair with 101272, K562, 1600 ng, day 3
[8] = tested on: TALEN 101272 (engineered); details: pair with 101271, K562, 1600 ng, day 3
[9] = tested on: TALEN 101284 (engineered)
[10] = tested on: TALEN 101282 (engineered); details: pair with 101288, K562, 1600 ng, day 3

Question: Which results are given for “AACTTTTGTTAAATTCCTGATTTTATTTCTGTAGGACTGAGCGGCTTGCTCGAGATGTG (double strand) [canine HPRT region (29250/101276 site)]”?
Answer: activity ([1]; pair with 101278, canine D17, 200 ng, 0 at 100 and 400 ng): 2.5 % NHEJ; activity (ZFN 29250 (engineered); pair with 30179, canine D17, 100 ng): 9.2 % NHEJ

Question: For “AAGCACTGAATAGAAATAGTGATAGATC (double strand) [29223 site]”, which activity (ZFN 29223 (engineered); pair with 29216, rhesus LLC-MK2, printed as 29233) is on record?
Answer: Its activity is 2.7 % NHEJ.

Question: Which results are given for “ATCTCGAGCAAGACGTTCAGTCCTACAG (double strand) [29250 site]”?
Answer: activity (ZFN 29250 (engineered); pair with 29251, K562, 800 ng, day 3): 69.2 % NHEJ; activity (ZFN 29250 (engineered); pair with 29251, rhesus LLC-MK2 (sites stated conserved)): 8.2 % NHEJ

Question: How did the activity (ZFN 29216 (engineered); pair with 29223 (printed 29233), rhesus LLC-MK2) turn out when “ATGTAATCCAGCAGGTCAGCAAAGAATT (double strand) [29216 site]” was run?
Answer: The activity was 2.7 % NHEJ.

Question: For “TCCGTTATGGCGAC (double strand) [101267 site]”, which activity [2] is on record?
Answer: The activity was 31.8 % NHEJ.

Question: For “TCTATCACTATTTCTAT (double strand) [101286 site]”, which activity [3] is on record?
Answer: The activity was 35.3 % NHEJ.

Question: Which results are given for “TGATGAAGGAGATGGGAGGCCATCACAT (double strand) [29251/30179 site]”?
Answer: activity (ZFN 30179 (engineered); pair with 29250, rhesus LLC-MK2): 0 % NHEJ; activity (ZFN 29251 (engineered); pair with 29250, K562, 800 ng, day 3): 69.2 % NHEJ; activity (ZFN 29251 (engineered); pair with 29250, rhesus LLC-MK2 (sites stated conserved)): 8.2 % NHEJ

Question: Which activity [4] does the source give for “TGCTCACCACGAC (double strand) [101270 site]” here?
Answer: Its activity is 31.8 % NHEJ.

Question: What does the source list for “TGGATCTATCACTATTT (double strand) [101288 site]”?
Answer: activity ([5]; pair with 101284, K562, 1600 ng, day 3): 62.2 % NHEJ; activity ([5]; pair with 101284, rhesus LLC-MK2): 8.7 % NHEJ

Question: Which results are given for “TGGCCTCCCATCTCCT (double strand) [101278 site]”?
Answer: activity ([6]; pair with 101276, K562, 1600 ng, day 3): 35.3 % NHEJ; activity ([6]; pair with 101276, rhesus LLC-MK2): 7.6 % NHEJ

Question: With “TGGCGTCGTGGTGAGC (double strand) [101271 site]” as the substance, how does the activity [7] read?
Answer: The activity was 19.1 % NHEJ.

Question: “TGGGCCTGAACCGGCC (double strand) [101272 site]” was tested. Which activity [8] did it give?
Answer: Its activity is 19.1 % NHEJ.

Question: Which activity ([1]; pair with 101278, K562, 1600 ng, day 3) does the source give for “TGTAGGACTGAACGTCTT (double strand) [101276 site]” here?
Answer: Its activity is 35.3 % NHEJ.

Question: What about the activity ([1]; pair with 101278, rhesus LLC-MK2) of the same substance?
Answer: Its activity is 7.6 % NHEJ.

Question: How did the activity ([9]; pair with 101288, K562, 1600 ng, day 3) turn out when “TTGCTGACCTGCTGGATT (double strand) [101284 site]” was run?
Answer: The activity was 62.2 % NHEJ.

Question: What about the activity ([9]; pair with 101288, rhesus LLC-MK2) of the same substance?
Answer: The activity was 8.7 % NHEJ.

Question: Which activity [10] does the source give for “TTTGCTGACCTGCTGGAT (double strand) [101282 site]” here?
Answer: Its activity is 46.2 % NHEJ.

Question: Which activity (ZFN 29223 (engineered); pair with 29216, canine D17) does the source give for canine HPRT locus, other sites here?
Answer: The activity was 0 % NHEJ.

Question: And the activity (ZFN 29216 (engineered); pair with 29223, canine D17)?
Answer: Its activity is 0 % NHEJ.

Question: What about the activity (ZFN 30179 (engineered); pair with 29250, canine D17, 100 ng) of the same substance?
Answer: The activity was 9.2 % NHEJ.

Question: And the activity ([6]; pair with 101276, canine D17, 200 ng, 0 at 100 and 400 ng)?
Answer: The activity was 2.5 % NHEJ.

Question: What about the activity ([9]; pair with 101288, canine D17, 100 ng) of the same substance?
Answer: The activity was 25.1 % NHEJ.

Question: And the activity ([5]; pair with 101284, canine D17, 100 ng)?
Answer: Its activity is 25.1 % NHEJ.

Question: And the activity (ZFN 29251 (engineered); pair with 29250, canine D17, 200 ng, 0 at 100 and 400 ng)?
Answer: Its activity is 2.8 % NHEJ.
